Test results as given in patent publication US20120114590A1 (priority 2005, published 2012).

Legend:
[1] = tested on: liver, spleen and blood of mice; assay: ISG gene expression (OAS, Pkr, Mx1) in liver, spleen and blood of injected C57BL/6 mice (real-time PCR); format: in vivo, mouse; details: livers of mice, 100 μg i.v.
Experimental: Mice were sacrificed at various time points (1 hr-48 hr). Spleens and livers were isolated from mice, and RNA was isolated. RNA was also isolated from the blood cells. The cells were pelleted and RNA isolated from pellets using RNAEasy®-kit (Qiagen). RNA was treated with DNase (Amicon) to rid RNA of any contaminating DNA. cDNA was generated using Perkin-Elmer RT mix (Perkin-Elmer). ISG gene induction was measured by real-time PCR using primers and probes specific for mouse OAS, Pkr and Mx1. To obtain quantitative data, HPRT real-time PCR was duplexed with ISG PCR. A standard curve was calculated using known amounts of IFN-stimulated mouse PBLs. All data are shown as expression relative to internal HPRT expression.

[2] = target: T1, zcyto20 (human IL-28A) (human) (UniProt Q8IZJ0); assay: cell-based or functional assay
T1 sequence: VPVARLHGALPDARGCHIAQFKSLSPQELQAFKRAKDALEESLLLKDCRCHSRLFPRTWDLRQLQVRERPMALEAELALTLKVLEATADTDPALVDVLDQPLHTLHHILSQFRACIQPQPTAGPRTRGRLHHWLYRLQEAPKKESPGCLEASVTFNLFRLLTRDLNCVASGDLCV

[3] = target: T2, zcyto24 (mouse IL-28A) (mouse) (UniProt Q4VK74); assay: cell-based or functional assay
T2 sequence: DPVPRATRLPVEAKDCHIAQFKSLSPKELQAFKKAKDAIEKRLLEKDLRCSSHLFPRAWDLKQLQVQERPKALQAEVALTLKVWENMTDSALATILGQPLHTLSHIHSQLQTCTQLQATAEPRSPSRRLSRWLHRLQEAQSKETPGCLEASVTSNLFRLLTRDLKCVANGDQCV

[4] = target: zcyto21 (human IL-29) (human) (UniProt Q8IU54); assay: cell-based or functional assay
[5] = tested on: 293 HEK cells overexpressing zcytor19; assay: Inhibition of ligand-induced ISRE-luciferase signaling by soluble receptors; format: cell-based, human; details: 10 micrograms/ml soluble receptor

zcyto21 (human IL-29) (human), sequence (Q8IU54 20-200): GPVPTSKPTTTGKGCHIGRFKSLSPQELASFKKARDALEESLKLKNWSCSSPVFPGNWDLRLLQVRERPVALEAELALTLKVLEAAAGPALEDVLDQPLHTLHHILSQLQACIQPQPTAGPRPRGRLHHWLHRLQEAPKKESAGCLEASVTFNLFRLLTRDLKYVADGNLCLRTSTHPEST

In the case of “MetIL-29-PEG: E. coli derived pegylated Met IL-29”, the “Mx1 3 hr” value ([1]; 3 hr) is reported as 537.51 fold expression over HPRT expression, the “OAS 3 hr” value ([1]; 3 hr) is reported as 91.29 fold expression over HPRT expression and the “PKR 3 hr” value ([1]; 3 hr) is reported as 18.24 fold expression over HPRT expression. The “Mx1 6 hr” value ([1]; 6 hr) was 124.99 fold expression over HPRT expression, the “OAS 6 hr” value ([1]; 6 hr) was 65.93 fold expression over HPRT expression and the “PKR 6 hr” value ([1]; 6 hr) was 13.93 fold expression over HPRT expression. The “Mx1 12 hr” value ([1]; 12 hr) was 33.58 fold expression over HPRT expression, the “OAS 12 hr” value ([1]; 12 hr) was 54.04 fold expression over HPRT expression and the “PKR 12 hr” value ([1]; 12 hr) was 4.99 fold expression over HPRT expression. The “Mx1 24 hr” value ([1]; 24 hr) was 35.82 fold expression over HPRT expression, the “OAS (24 hr)” value ([1]; 24 hr) was 20.81 fold expression over HPRT expression and the “PKR 24 hr” value ([1]; 24 hr) was 3.77 fold expression over HPRT expression.

Molecule “human CRF2-4-Fc homodimer (from UniProt Q08334 20-220) (Fc fusion)” has a Percent Inhibition of Ligand-induced Interferon Stimulated Response Element (ISRE) Signaling by Soluble Receptors [2] of 80%, a Percent Inhibition of Ligand-induced Interferon Stimulated Response Element (ISRE) Signaling by Soluble Receptors [3] of 82% and a Percent Inhibition of Ligand-induced Interferon Stimulated Response Element (ISRE) Signaling by Soluble Receptors [4] of 79%.

“human zcytor19-Fc/human CRF2-4-Fc heterodimer (from UniProt Q08334 20-220) (Fc fusion)” showed a Percent Inhibition of Ligand-induced Interferon Stimulated Response Element (ISRE) Signaling by Soluble Receptors [2] of 16%, a Percent Inhibition of Ligand-induced Interferon Stimulated Response Element (ISRE) Signaling by Soluble Receptors [3] of 47% and a Percent Inhibition of Ligand-induced Interferon Stimulated Response Element (ISRE) Signaling by Soluble Receptors [4] of 16%.

B1: human zcytor19-Fc homodimer (Fc fusion, not shown: a dimerising Fc or GST)
chain: RPRLAPPQNVTLLSQNFSVYLTWLPGLGNPQDVTYFVAYQSSPTRRRWREVEECAGTKELLCSMMCLKKQDLYNKFKGRVRTVSPSSKSPWVESEYLDYLFEVEPAPPVLVLTQTEEILSANATYQLPPCMPPLDLKYEVAFWKEGAGNKTLFPVTPHGQPVQITLQPAASEHHCLSARTIYTFSVPKYSKFSKPTCFLLEVPEANWA
Work on B1 yielded a Percent Inhibition of Ligand-induced Interferon Stimulated Response Element (ISRE) Signaling by Soluble Receptors [2] of 92%, a Percent Inhibition of Ligand-induced Interferon Stimulated Response Element (ISRE) Signaling by Soluble Receptors [3] of 90% and a Percent Inhibition of Ligand-induced Interferon Stimulated Response Element (ISRE) Signaling by Soluble Receptors [4] of 45%.

B2: human zcytor19-Fc homodimeric soluble receptor: homodimeric soluble receptor Fc fusion (protein)
chain: RPRLAPPQNVTLLSQNFSVYLTWLPGLGNPQDVTYFVAYQSSPTRRRWREVEECAGTKELLCSMMCLKKQDLYNKFKGRVRTVSPSSKSPWVESEYLDYLFEVEPAPPVLVLTQTEEILSANATYQLPPCMPPLDLKYEVAFWKEGAGNKTLFPVTPHGQPVQITLQPAASEHHCLSARTIYTFSVPKYSKFSKPTCFLLEVPEANWA
modifications: left off: a dimerising Fc or GST
notes: homodimeric soluble receptor Fc fusion
With B2 the “inhibition of zcyto2′-induced signaling” value [5] was 45%.

B3: murine zcytor19-Ig homodimer (Fc fusion, part only; not given: Ig Fc portion, mouse, UniProt Q8CGK5 21-227, looked up, part only)
chain, part: RPRLAPPRNVTLFSQNFTVYLTWLPGLGSPPNVTYFVTYQSYIKTGWRPVEHCAGIKALVCPLMCLKKLNLYSKFKGRVQAASAHGRSPRVESRYLEYLFDVELAPPTLVLTQMEKILRVNATYQLPPCMPSLELKYQVEFWKEGLGSKTLFPDTPYGQPVQIPLQQGASRRHCLSARTVYTLIDIKYSQFSEPSCIFLEAPGDKRA
Molecule B3 has a Percent Inhibition of Ligand-induced Interferon Stimulated Response Element (ISRE) Signaling by Soluble Receptors [2] of 91%, a Percent Inhibition of Ligand-induced Interferon Stimulated Response Element (ISRE) Signaling by Soluble Receptors [3] of 89% and a Percent Inhibition of Ligand-induced Interferon Stimulated Response Element (ISRE) Signaling by Soluble Receptors [4] of 103%.

B4: muzcytor19-Ig: murine homodimeric soluble receptor Ig fusion (protein)
chain: RPRLAPPRNVTLFSQNFTVYLTWLPGLGSPPNVTYFVTYQSYIKTGWRPVEHCAGIKALVCPLMCLKKLNLYSKFKGRVQAASAHGRSPRVESRYLEYLFDVELAPPTLVLTQMEKILRVNATYQLPPCMPSLELKYQVEFWKEGLGSKTLFPDTPYGQPVQIPLQQGASRRHCLSARTVYTLIDIKYSQFSEPSCIFLEAPGDKRA
modifications: left off: a dimerising Fc or GST
notes: murine homodimeric soluble receptor Ig fusion
With B4 the “effect on ligand-induced signaling” value [5] was “No significant effects”.

B5: huCRF2-4-Fc: homodimeric soluble receptor Fc fusion (protein)
chain: MVPPPENVRMNSVNFKNILQWESPAFAKGNLTFTAQYLSYRIFQDKCMNTTLTECDFSSLSKYGDHTLRVRAEFADEHSDWVNITFCPVDDTIIGPPGMQVEVLADSLHMRFLAPKIENEYETWTMKNVYNSWTYNVQYWKNGTDEKFQITPQYDFEVLRNLEPWTTYCVQVRGFLPDRNKAGEWSEPVCEQTTHDETVPS
modifications: left off: a dimerising Fc or GST
notes: as for B2
With B5 the “effect on ligand-induced signaling” value [5] was “No significant effects”.
